± gives the standard deviation of the averaged measurements.
test system: ATP; assay: switch fluorescence ratio, 500 uM ATP over buffer (Cy3 cluster intensity, sum of 5 cycles each) (fold (ratio)); higher = stronger signal-on switching upon ATP binding; sequences stand for … in TCGTCGGCAGCGTCAGATGTGTATAAGAGACAGTTTTTTTTTTTTTTTTTTTTTTTTT…TC; details: aptamer strand: ATP DNA aptamer (quencher-CACCTGGGGGAGTATTGCGGAGGAAGG + anchor), 100 nM annealed; ATP concentration: 500 uM
Outline: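 After annealing to 100 nM quencher-labelled ATP aptamer, Cy3-labelled switching-strand clusters on a modified Illumina MiSeq flow-cell were imaged in selection buffer. A second image followed after 15 min with 500 uM ATP at 22 °C, and five such buffer/ATP cycles were done, each separated by NaOH stripping and re-annealing. The fluorescence ratio, averaged per switch-domain sequence, is summed target-cycle over summed buffer-cycle Cy3 intensity per cluster, with clusters outside 100-1000 RFU excluded.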
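Note: ATP exposure 15 min at 22 °C before imaging.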

Sequence | switch fluorescence ratio
ACATACTTTA | 1.32 ± 0.015
ACATAGAGAT | 1.02 ± 0.039
ACATAGATTT | 1.03 ± 0.029
ACATAGTTGG | 0.966 ± 0.024
ACATATATGG | 0.9752 ± 0.0051
ACATATTTGA | 1.01 ± 0.03
ACATCAGAAG | 1.02 ± 0.039
ACATCCAATT | 0.99 ± 0.019
ACATCTAGGC | 1.069 ± 0.0093
ACATCTCGTT | 0.96 ± 0.041
ACATGATGTT | 1 ± 0.028
ACATGGCATC | 1.05 ± 0.046
ACATGGGCTA | 1.09 ± 0.11
ACATGGGGAG | 1.02 ± 0.016
ACATTAATTC | 0.99573 ± 0.00079
ACATTATCCA | 1.01 ± 0.0068
ACATTATTTC | 1.05 ± 0.033
ACATTCACGT | 1.52 ± 0.033
ACATTCAGTA | 0.991 ± 0.014
ACATTGACGC | 1.08 ± 0.021
ACATTGGCGG | 0.993 ± 0.066
ACATTGGTAT | 1 ± 0.011
ACATTGGTGG | 0.993 ± 0.026
ACATTTGGGG | 1.03 ± 0.066
ACATTTTACT | 1.12 ± 0.014

Sequence | switch fluorescence ratio
ACCAAAGGCT | 1.03 ± 0.04
ACCAAATTAT | 1.03 ± 0.058
ACCAAGCCAT | 1.09 ± 0.077
ACCAAGGGGT | 1.02 ± 0.054
ACCAATGTTC | 1.03 ± 0.033
ACCAATTGGT | 1.02 ± 0.012
ACCAATTTGC | 1.05 ± 0.043
ACCACAAAGG | 1.48 ± 0.61
ACCACCTTAC | 2.32 ± 0.29
ACCACGGTTG | 1.07 ± 0.023
ACCAGGCTTG | 1.02 ± 0.016
ACCAGTGATG | 1.01 ± 0.039
ACCATCAAAT | 0.9853 ± 0.0068
ACCATCGTAG | 1.0191 ± 0.00047
ACCATGACGG | 1.044 ± 0.0092
ACCATGCGTT | 0.992 ± 0.03
ACCATGGGCT | 0.974 ± 0.038
ACCATGTACT | 1.07 ± 0.016
ACCATTGGGG | 0.993 ± 0.031
ACCATTTTTG | 0.985 ± 0.057
ACCCAAACAA | 1.06 ± 0.028
ACCCCGGTCT | 1.04 ± 0.011
ACCCGAAGGC | 1.08 ± 0.043
ACCCGAGCAC | 2.13 ± 0.054
ACCCGCCTTT | 1.086 ± 0.0021

Sequence | switch fluorescence ratio
ACCCGGGCAG | 1.049 ± 0.0047
ACCCGGGGTC | 1 ± 0.053
ACCCGTTGCC | 1.03 ± 0.057
ACCCTCGGGG | 1.0015 ± 0.00096
ACCCTCTGGG | 1.01 ± 0.021
ACCCTGGACC | 1.066 ± 0.0086
ACCCTGTGTA | 1 ± 0.021
ACCCTTCCAA | 1.72 ± 0.072
ACCCTTTTAC | 1.13 ± 0.052
ACCGAATGTT | 0.999 ± 0.022
ACCGAGGCTT | 1.45 ± 0.051
ACCGCTCGAA | 1.15 ± 0.056
ACCGCTGTGG | 1.06 ± 0.019
ACCGGCCCGG | 0.9848 ± 0.0085
ACCGGCGGTT | 1.01 ± 0.032
ACCGGCGTTT | 1.05 ± 0.051
ACCGGGGGCT | 1.034 ± 0.0052
ACCGGGGGGT | 1.37 ± 0.22
ACCGGGGTTA | 0.986 ± 0.033
ACCGGTGTTC | 1.021 ± 0.0069
ACCGTCTGTA | 1.014 ± 0.0058
ACCGTGGCGT | 1.0212 ± 0.001
ACCGTTTTTT | 1 ± 0.017
ACCTAACACG | 1.19 ± 0.037
ACCTAGTGTG | 1.135 ± 0.0024

Sequence | switch fluorescence ratio
ACCTATGGGA | 1 ± 0.028
ACCTCAGCTT | 1.48 ± 0.021
ACCTGACTTG | 1.06 ± 0.014
ACCTGAGGGG | 1.024 ± 0.0035
ACCTGGGTGG | 1.03 ± 0.036
ACCTTATATA | 1.056 ± 0.0094
ACCTTCGTTG | 1.22 ± 0.003
ACCTTGGGGA | 1.25 ± 0.4
ACCTTTTAAG | 1.23 ± 0.3
ACCTTTTAGG | 0.965 ± 0.036
ACGAAAGTCA | 1.052 ± 0.01
ACGAACAGTT | 1.15 ± 0.047
ACGAAGATGC | 1.24 ± 0.15
ACGAAGGCTA | 1.14 ± 0.028
ACGAAGGGGG | 1.14 ± 0.24
ACGAAGGTCG | 1.03 ± 0.059
ACGACGTTGA | 1.07 ± 0.032
ACGACTGCGT | 1.0213 ± 0.00018
ACGACTTTTT | 1.03 ± 0.063
ACGAGAAGTT | 1.1 ± 0.073
ACGAGCCTAG | 1.33 ± 0.058
ACGAGCGTGG | 1 ± 0.011
ACGAGGATGC | 1.09 ± 0.024
ACGAGGGGGG | 1.02 ± 0.02
ACGAGGTTCT | 1.016 ± 0.003

Source: the supplement of paper PMC10126150
